A short description of data set [1]: Measurement of L-arginine oxidation activity of hypha extract. The class given is biochemical. To be noted: intracellular recombinant PenOX2 after anion exchange and ultrafiltration concentration. Here is the method:
200 μL of each crude enzyme solution was mixed with a 380 μL of 150 mM potassium phosphate buffer solution (pH 7.0) in which 7.1 U/mL peroxidase, 0.70 mM 4-aminoantipyrine and 0.79 mM TOOS were dissolved. The resultant mixture was incubated at 37° C. for 5 minutes, and 20 μL of a 60 mM L-arginine solution was added thereto, followed by stirring, and reacting at 37° C. for 5 minutes. A change over time of A555 during the reaction was measured using a spectrophotometer (U-3900, manufactured by Hitachi High-Tech Science Corporation). A control experiment was performed by adding 20 μL of ion-exchanged water instead of 20 μL of the 60 mM L-arginine solution. An amount of the enzyme generating 1 μmol of hydrogen peroxide per minute at 37° C. was defined as one unit (U), and the activity was calculated in accordance with the following equation: Activity (U/mL)={(ΔAs−ΔA0)×0.6×df}/(39.2×0.5×0.2) • ΔAs: change of A555 per minute of reaction solution • ΔA0: change of A555 per minute of control experiment • 39.2: millimolar absorbance coefficient (mM^−1·cm^−1) of quinoneimine pigment generated through reaction • 0.5: molar number of quinoneimine pigment generated by 1 mol of hydrogen peroxide • 0.6: volume (mL) of whole reaction solution • df: dilution factor • 0.2: volume (mL) of enzyme solution

A short description of data set [2]: Thermal stability of PenOX2 (residual activity after 10 minutes treatment). Format: physicochemical. Particulars: treated 10 minutes at respective temperatures; residual activity measured at pH 7.5, 37° C.; FIG. 9. Here is the method: (§1) 600 μL of an arbitrary buffer, 400 μL of deionized water solution in which 3.99 U/mL peroxidase, 1.8 mM 4-aminoantipyrine and 2 mM TOOS were dissolved, and 150 μL of deionized water were incubated at an arbitrary temperature for 10 minutes. Then, 50 μL of the enzyme solution having been stored on ice and 400 μL of a solution of 4 mM pentosidine dissolved in a 100 mM potassium phosphate buffer (pH 8.0) having been incubated at an arbitrary temperature for 10 minutes were added thereto, followed by stirring and reacting at an arbitrary temperature for 3 minutes. A change over time of A555 during the reaction was measured using a spectrophotometer (U-3900, manufactured by Hitachi High-Tech Science Corporation). An elapsed time from the start of the measurement of 20 seconds to 60 seconds—A555 change was regarded as an activity value.
Residual activity obtained when the enzyme solution was treated for 10 minutes at respective temperatures was evaluated by performing the activity measurement described above by using a potassium phosphate buffer (final pH in the activity measurement: pH 7.5, final concentration of 100 mM) at 37° C.

A short description of data set [3]: Enzyme activity measurement with pentosidine as substrate (A555 change, U/mL). Format: biochemical. The protocol:
as §1
Besides, an amount of the enzyme generating 1 μmol of hydrogen peroxide per minute at 37° C. was defined as one unite (U), and the activity was calculated in accordance with the following equation. Activity (U/mL)={(ΔAs−ΔA0)×1.6×df}/(39.2×0.5×0.05) • ΔAs: change of A555 per minute of reaction solution • ΔA0: change of A555 per minute of control experiment • 1.6: volume (mL) of whole reaction solution • df: dilution factor • 39.2: millimolar absorbance coefficient (mM^−1-cm-1) of quinoneimine pigment generated through reaction • 0.5: molar number of quinoneimine pigment generated by 1 mol of hydrogen peroxide • 0.05: volume (mL) of enzyme solution
A 50 mM citric acid-100 mM potassium phosphate buffer (pH 4.0 to 7.5, a final concentration), a potassium phosphate buffer (pH 6.5 to 8.0, a final concentration of 100 mM), and a glycine buffer (pH 8.0 to 11.0, a final concentration of 100 mM) were prepared, and these were used to perform an enzymatic reaction at respective pH at a temperature of 37° C. […] Therefore, it was determined that the optimum pH of PenOX2 is pH 6.5 to 8.0, and that the most suitable optimum pH is pH 7.5.
A potassium phosphate buffer (pH 7.5) having a final concentration of 50 mM was used to perform the activity measurement of PenOX2 at various temperatures. The highest activity was obtained around 50° C., and a temperature range for attaining 80% or more of this highest activity was 37° C. to 50° C. Therefore, it was determined that the range of the optimum temperature of PenOX2 is 37° C. to 50° C.
The above-described activity measurement method was employed to perform activity measurement using a potassium phosphate buffer (final pH in the activity measurement: pH 7.5, final concentration of 50 mM) at 37° C., and an activity value (U/mL) was obtained by using the aforementioned equation.
As described above, both PenOX1 and PenOX2 had the pentosidine oxidase activity. […] Subsequently, the following three enzymes were purchased, and the above-described activity measurement method was employed for confirming their pentosidine oxidase activity using a potassium phosphate buffer (pH 7.5, final concentration of 100 mM) at 37° C. The amino acid sequence homologies with PenOX1 and PenOX2 and the pentosidine oxidase activities of these enzymes were as follows.

The nature of data set [4]: Pentosidine quantitative test (DA-67/peroxidase, A658, Bio Majesty JCA-BM1650). Format: biochemical. To be noted: 0.2-4.0 μM pentosidine solutions, 37° C., 5 minutes; ΔA658 correlated with final pentosidine concentration (FIG. 4). The protocol: The following reagents were prepared to measure pentosidine by using Bio Majesty JCA-BM1650 (manufactured by JEOL Ltd.).
0.2 μM, 0.4 μM, 0.6 μM, 1.0 μM, 2.0 μM or 4.0 μM pentosidine solution
25 μL of the sample was added to 50 μL of the first reagent, and the resultant was incubated at 37° C. for 5 minutes. Then, 25 μL of the second reagent was added thereto to allow a pentosidine oxidation reaction owing to PenOX2 and a detection reaction for hydrogen peroxide generated through the reaction to proceed at 37° C. for 5 minutes.
In the detection reaction for hydrogen peroxide, simultaneously with consumption of […], DA-67 is oxidized into methylene blue to present the color, and the absorbance (A658) is increased. As an example, the relationship between the elapsed time after the mixture of the sample (4.0 μM pentosidine solution) and the first reagent and the absorbance (A658) is shown in FIG. 3. It was confirmed that A658 increased immediately after the addition of the second reagent containing PenOX2.
Subsequently, an A658 increment (AA) caused by the oxidation of pentosidine was calculated in accordance with the following equation: ΔA=(absorbance 5 min after addition of second reagent)−(absorbance immediately before addition of second reagent×0.75)

Data set [5] in a line: Range of stable pH of PenOX2 (residual activity after 25° C., 20 hours). Format: physicochemical. The protocol:
as §1
Treatments were performed respectively using, as a buffer solution, a 100 mM citric acid-200 mM potassium phosphate buffer (pH 3.0 to 6.5), a 200 mM potassium phosphate buffer (pH 6.5 to 8.0) and a 200 mM glycine buffer (pH 8.0 to 10.0) at respective pH and at 25° C. for 20 hours, and then, residual activity of PenOX2 was measured.

B1: PenOX2: protein having the amino acid sequence of SEQ ID NO: 4, pentosidine oxidase from Sarocladium sp., gene g10122; recombinant from Aspergillus sojae (protein, listed as Sarocladium sp.)
chain: MFTPKAWIPLLALSREVFSNPTSASHSISFHGLLGVSSESVHNIHLTYGDAFPHGDFRVVFGDCGMTSEDELHHEVASLSTKMESAPDRLVWLVPKDVRENGCLHAFSEGVLLGRSEPVAFTEPLRKRESLSEIGDSDGLWFSGIRYLQSSNLTSVKAAEAKEKKIGIVGGGISGLMTSLLLTSVGMTNWHIIEATERVGGRIRTKYMNGTSPDDYQYQEMGPMRFPVEVKYNDTNETLPIQDHKMVFQLAEVLNEMNGNDTDLAVKFIPWTQNNPNTPANSRGYRLPDGRIPTAAQIAQNPSILPAAANASDPQDAELGKESLERLSDLTPERMRNISANIFKAHRDAIDRGLFHWSEAAYLRYQLGLDDDTVDFVAASDNYPMFPDWWHAVYFAATKWLTIDKGLDSLSRAFVPHVKDKITYGRKIEAMQWNESTSKISLSWRESPLAAAKSDEYDYAVVAVPFSKVRLWKRPAYSNLLTRAIGKLNYEQACKVALLYETRFWEHQEIPIFGGCGSVDIPGIGGVCYPSYEINSTRPGVILSSYITGTEARSVVALSEEDHVAMVQRAMVEVHGPMADEQWTGIYDRLCWEVDENAAGGWASPTVGQQELFIPAYHKTELNTIFIGEHTSITHGWIFSALESSVRGTTQLLLDLGLVDEAKQIVETWMARWITV
In general, Km refers to the concentration of substrate that gives half-maximal velocity. For the molecule B1, the “L-arginine oxidation activity of concentrate of purified PenOX2 solution” value in data set [1] is recorded as 24 U/mL. Further, in data set [2], the “temperature up to which enzyme was stable” value is “about 30 °C”. In data set [3] (37° C., FIG. 7), the “pH of highest activity (most suitable optimum pH)” value is 7.5 pH. Also, the “activity relative to highest activity” value in data set [3] (at 37° C. to 50° C., pH 7.5) is ≥ 80%. In data set [3] (at pH 6.5 to 8.0, 37° C.), the “activity relative to value in potassium phosphate buffer of around pH 7.5” value is ≥ 70%. Also, the Km in data set [3] (pH 7.5, 50 mM potassium phosphate, 37° C., Lineweaver-Burk plot, FIG. 11) is 140 µM. In data set [3] (pH 7.5, 50 mM, 37° C., protein by Bradford method), the “specific activity against pentosidine” value was 29.1 U/mg. For the same molecule, the “activity value against pentosidine” value in data set [3] (potassium phosphate buffer pH 7.5, 50 mM, 37° C.) is 7.8 U/mL. The “temperature of highest activity” value in data set [3] (potassium phosphate buffer pH 7.5, 50 mM, FIG. 8) was “around 50 °C”. For the same molecule, the pentosidine oxidation activity entry in data set [4] is “exhibits the pentosidine oxidation activity”. Besides, the “residual activity relative to PenOX2 stored at 4° C.” value in data set [5] (pH range 4.0 to 9.0, FIG. 10) is on record as ≥ 60%; in data set [5] (pH range 4.5 to 7.5, FIG. 10), ≥ 90%.
